The values below come from patent US20110305783A1, “Method and pharmaceutical composition for treating psoriasis, squamous cell carcinoma and/or parakeratosis by inhibiting expression of squamous cell carcinoma-related antigen” (Shiseido Company, Ltd., priority 2005, published 2011).

Common to all, as to type: biochemical
Assay [1] deals with T1, caspase-14 (Homo sapiens, UniProt P31944).
T1 construct: human caspase-14 is purified in the form of a heterodimer composed of a large subunit (17 KDa) and a small subunit (11 KDa); from tissue; host or cells: human cornified cells (heel stratum corneum)
T1 sequence (P31944 6-146 limits assumed): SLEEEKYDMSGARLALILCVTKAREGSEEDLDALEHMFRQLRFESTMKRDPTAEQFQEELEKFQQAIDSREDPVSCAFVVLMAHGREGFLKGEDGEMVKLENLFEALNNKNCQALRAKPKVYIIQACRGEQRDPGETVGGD
T1 sequence (P31944 153-242 limits assumed): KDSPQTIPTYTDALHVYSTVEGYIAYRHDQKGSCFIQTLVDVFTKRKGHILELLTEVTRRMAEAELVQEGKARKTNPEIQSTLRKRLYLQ
Kind of assay: Inhibitor assay on purified caspase-14, WEHD-MCA hydrolysis activity. Here is the method: Caspase-14 was incubated with peptide inhibitors of caspase (consisting of YVAD, VDVAD, DEVD, VEID, IETD, LEHD and DNLD) and class-specific inhibitors of cysteine proteinase (IAA) and serine proteinase (AEBSF). Residual enzyme activity was measured using WEHD-MCA as substrate in the presence of 1.3 M sodium citrate and 5 mM DTT. […] The values are shown as the average values of duplicate assays.
Briefly, the assay mixture was prepared from 45 μl of 0.1 M HEPES buffer (pH 7.5), 0.06 M NaCl, 0.01% CHAPS, 5 mM DTT, 1.3 M sodium citrate and 10 μM WEHD-MCA (all concentrations indicate the final concentrations). An enzyme sample (5 μl) was added to this mixture followed by incubating for 10 to 30 minutes. The reaction was stopped with 150 μl of 0.1 M monochloroacetic acid, and measurements were performed at an excitation wavelength of 355 nm and emission wavelength of 460 nm using Fluoroskan Ascent FL (Thermo Electron Co., Wolsam, Mass.). In the case of the inhibitor assay, caspase-14 and peptide inhibitor were incubated in the assay buffer for 15 minutes, and the assay was started with the addition of 5 μl of 100 μM WEHD-MCA.
Human cornified cells (approx. 14 g) scraped from the heels of healthy individuals were extracted with 0.1 M Tris-HCl (pH 8.0) containing 0.14 M NaCl using a glass homogenizer. A supernatant was obtained after centrifuging at 15,000 g for 60 minutes. After concentrating with Amicon Ultra (Millipore, Mass.) and desalting with the Fast Desalting Column HR10/10 (Amersham Biosciences), the crude product was applied to a HiPrep 16/10 QXL column. […] In addition, hydrolysis activity with respect to Ac-[…]-Glu-His-Asp-methyl-coumarin amide (WEHD-MCA) (Peptide Institute, Inc., Osaka, Japan) was measured for each fraction. Positive fractions were placed on a Mono Q column equilibrated with the same buffer and eluted a maximum NaCl gradient of 1 M. The caspase-14 fraction was further separated by Mono S cationic exchange chromatography. The column was equilibrated with 20 mM acetate buffer (pH 4.5) and eluted at an NaCl gradient of 0 to 1 M. Positive fractions were concentrated and placed on a chromatofocusing Mono P column equilibrated with 25 mM ethanolamine (pH 8.3). The column was eluted while forming a pH gradient from 8 to 5 using 46 ml of Polybuffer (pH 5.0). The caspase-14 was finally purified using Superdex 75 gel chromatography. The protein concentration was determined with the BioRad Protein Assay Kit (BioRad Lab, Hercules, Calif.).

For assay [2], the system named is Recombinant caspases-1 to 10. Kind of assay: Recombinant caspases incubated with SCCA-1, hydrolysis of synthetic caspase substrates. The conditions noted are these: recombinant caspase incubated with SCCA-1 (FIG. 10C). On the procedure:
(§1) ICAD decomposition was only observed in the presence of kosmotropic salt. […] When SCCA-1 was added to the mixture, ICAD decomposition was virtually not detected, and there were still no effects after incubating for 16 hours (B). (C) The results are shown of investigating hydrolysis activity on synthetic caspase substrates in the presence of kosmotropic salt.
Benzyloxycarbonyl (Z)-YVAD-FMK, Z-VDVSD-FMK, Z-DEVD-FMK, Z-VEID-FMK, Z-IETD-FMK, Z-LEHD-FMK and Z-VAD-FMK were purchased from BioVision (Mountain View, Calif.). Recombinant caspases-1 to 10 were obtained from BIOMOL Research Labs, Inc. (Plymouth Meeting, Pa.).
(§2) Although SCCA-1 is a member of the serpin superfamily, it inhibits cysteine proteases such as papain and cathepsin L (Takeda, A., et al., Biol. Chem., 383, 1231-6 (2002)). […] Thus, the inventors of the present invention conducted a test as to whether or not SCCA-1 is able to inhibit caspase members. Kosmotropic conditions were used in the case of caspase-14. […] Recovery of enzyme activity was not observed even if the incubation time increased.

Assay [3] deals with T2, caspase-3 (Homo sapiens, UniProt P42574).
T2 construct: purchased BIOMOL Research Labs, Inc. (Plymouth Meeting, Pa.)
T2 sequence (P42574 29-277): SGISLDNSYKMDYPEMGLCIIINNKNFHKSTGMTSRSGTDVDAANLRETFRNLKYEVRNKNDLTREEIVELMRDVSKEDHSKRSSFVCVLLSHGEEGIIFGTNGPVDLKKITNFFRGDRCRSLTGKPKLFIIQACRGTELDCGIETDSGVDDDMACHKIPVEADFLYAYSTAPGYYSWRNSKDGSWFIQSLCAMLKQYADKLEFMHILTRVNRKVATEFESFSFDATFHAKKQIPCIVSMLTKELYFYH
Kind of assay: Caspase-3 activity with SCCA-1, synthetic substrate DEVD-MCA or natural substrate ICAD. The source says:
The enzymatic characteristics of purified caspase-14 were extremely unique. […] The inventors of the present invention determined for the first time that SCCA-1 is an intrinsic inhibitor against caspase-14. The most unique characteristic of SCCA-1 is its remarkable specificity for caspase-14. Other members of caspase-1 to -10 are not affected by SCCA-1. […] Crm A belongs to the serpin superfamily and is known to be able to inhibit a large number of caspases including caspase-1 and caspase-8 (Gagliardini, V., et al., Science 263, 826-(1994)). XIAP is known to inhibit caspase-3, -7 and -9 (Srinivasula, S. M., et al., Nature 410, 112-6 (2001)). Since the anti-apoptotic protein p35 inhibits caspase-1, -3, -6, -7, -8 and -10, it is considered to have a broader spectrum.

The target in assay [4] is T1, caspase-14. Kind of assay: ICAD decomposition by purified caspase-14, Western blot. As to conditions: pre-incubation with 10 μM SCCA-1, kosmotropic salt, Western blot (FIG. 10B). On the procedure:
as §1
The inventors of the present invention tested the effects of caspase-14 on ICAD during the course of searching for natural substrates of caspase-14. This is because disappearance of the nucleus is an extremely important event for terminal differentiation.
as §2

[5] abbreviates: inhibitors at 5, 2.5 and 1.25 μM, WEHD-MCA substrate, 1.3 M sodium citrate, 5 mM DTT.

Entries after “also recorded” stand apart in the source; their conditions may differ. Like-named read-outs stand apart in the source and are kept apart here. Ends that are not written are not given here. * marks the point of attachment. Cbz = O=C(OCc1ccccc1)*; CH2F = FC*

For the molecule `NCCc1ccc(S(=O)(=O)F)cc1` [ABBSF, 4-(2-aminoethyl)benzenesulfonyl fluoride], the “Inhibitory effect on purified caspase-14 activity” value (“Inhibitory effect” below) in assay [1] (setting [5]) is reported as “did not exhibit significant inhibitory effects”.

With `O=C(O)CI` [IAA, iodoacetic acid], in assay [1], the “Inhibitory effect” value is reported as “did not exhibit significant inhibitory effects”. Regarding Benzyloxycarbonyl (Z)-YVAD-FMK, the “Inhibitory effect” value in assay [1] (setting [5]) is given as “extremely potent inhibitory effects; also recorded: most potent inhibitory action”. On the same count and under the same terms, to DEVD-FMK: caspase-3 inhibitor belongs “sensitivity”; to “IETD-FMK: caspase-8 inhibitor (Cbz-IETD-CH2F)”, “sensitivity”; to “LEHD-FMK: caspase-9 inhibitor (Cbz-LEHD-CH2F)”, “sensitivity”.

Take “VAD-FMK: pan-caspase inhibitor (Cbz-Val-Ala-Asp-CH2F)”: in assay [1] (setting [5]), the “Inhibitory effect” value is reported as “sensitivity; also recorded: one of the most potent caspase-14 inhibitors”. The same measure, in the same setting: to “VDVAD-FMK: caspase-2 inhibitor (VDVAD-CH2F)” belongs “sensitivity”. On the same count and under the same terms, to “VEID-FMK: peptide inhibitor of caspase (Cbz-VEID-CH2F)” belongs “hardly any effect”.

B1: SCCA-1: recombinant squamous cell carcinoma antigen 1, member of the serpin superfamily, intrinsic inhibitor of caspase-14 (protein)
chain: MNSLSEANTKFMFDLFQQFRKSKENNIFYSPISITSALGMVLLGAKDNTAQQIKKVLHFDQVTENTTGKAATYHVDRSGNVHHQFQKLLTEFNKSTDAYELKIANKLFGEKTYLFLQEYLDAIKKFYQTSVESVDFANAPEESRKKINSWVESQTNEKIKNLIPEGNIGSNTTLVLVNAIYFKGQWEKKFNKEDTKEEKFWPNKNTYKSIQMMRQYTSFHFASLEDVQAKVLEIPYKGKDLSMIVLLPNEIDGLQKLEEKLTAEKLMEWTSLQNMRETRVDLHLPRFKVEESYDLKDTLRTMGMVDIFNGDADLSGMTGSRGLVLSGVLHKAFVEVTEEGAEAAAATAVVGFGSSPTSTNEEFHCNHPFLFFIRQNKTNSILFYGRFSSP
Turning to B1, the “Effect on enzyme activity of caspase members (1 to 10)” value in assay [2] was “None of the caspase members (1 to 10) were affected”. Besides, the “Inhibition of caspase-3 activity” value in assay [3] is listed as “did not inhibit”. Further, the “Inhibition of ICAD cleavage by caspase-14” value in assay [4] is on record as “inhibited decomposition of ICAD; also recorded: completely inhibited”.
